Results from paper PMC12016715.

Biological target: SARS-CoV-2 spike (S)-trimer protein (SARS-CoV-2) (UniProt P0DTC2)
Assay: SEC

## SARS-CoV-2 spike (S)-trimer protein (from UniProt P0DTC2 16-1209) (domain or fragment)
  stoichiometry N: 3
